In this assay the target is RPB1 subunit of human RNA Polymerase II (human, UniProt P24928 1-1970). The assay is described as follows: cryo-EM structure.

B1: RECQL5_(1–620) D157A (domain or fragment)
chain: MSSHHTTFPFDPERRVRSTLKKVFGFDSFKTPLQESATMAVVKGNKDVFVCMPTGAGKSLCYQLPALLAKGITIVVSPLIALIQDQVDHLLTLKVRVSSLNSKLSAQERKELLADLEREKPQTKILYITPEMAASSSFQPTLNSLVSRHLLSYLVVAEAHCVSQWGHDFRPDYLRLGALRSRLGHAPCVALTATATPQVQEDVFAALHLKKPVAIFKTPCFRANLFYDVQFKELISDPYGNLKDFCLKALGQEADKGLSGCGIVYCRTREACEQLAIELSCRGVNAKAYHAGLKASERTLVQNDWMEEKVPVIVATISFGMGVDKANVRFVAHWNIAKSMAGYYQESGRAGRDGKPSWCRLYYSRNDRDQVSFLIRKEVAKLQEKRGNKASDKATIMAFDALVTFCEELGCRHAAIAKYFGDALPACAKGCDHCQNPTAVRRRLEALERSSSWSKTCIGPSQGNGFDPELYEGGRKGYGDFSRYDEGSGGSGDEGRDEAHKREWNLFYQKQMQLRKGKDPKIEEFVPPDENCPLKEASSRRIPRLTVKAREHCLRLLEEALSSNRQSTRTADEADLRAKAVELEHETFRNAKVANLYKASVLKKVADIHRASKDGQPYDM
In the case of B1, the binding result is “binds”.

These data come from paper PMC11838285 (bioRxiv, 2025).
